# Patent US20160297884A1 (Pfizer, published 2016)
# Where a chain is given by its changes, count along the chain named.
# B1: L3.PY/L1.AH/H3.TAQ (antibody, V domains shown)
# VH: EVQLLESGGGLVQPGGSLRLSCAASGFTFGSYAMTWVRQAPGKGLEWVSAISGSGGNTFYADSVKGRFTISRDNSKNTLYLQMNSLRAEDTAVYYCTRVSPIAAQMDYWGQGTLVTVSS
# VL: EIVLTQSPGTLSLSPGERATLSCRASQSVSAHYLAWYQQKPGQAPRLLIYGASSRATGIPDRFSGSGSGTDFTLTISRLEPEDFAVYYCQHYPYPPSFTFGQGTKVEIK
# notes: IgG
# B2: L3.PY/L1.FF/H3.YA (antibody, V domains shown)
# VH: B1 VH with T97A, A103Y, Q105G
# VL: B1 VL with A31S, H32F, Y33F
# notes: IgG
# B3: L3.PY/L1.PH/H2.QR (antibody, V domains shown)
# VH: B1 VH with S63Q, V64R, T97A, A104S, Q105G
# VL: B1 VL with A31P
# notes: IgG
# B4: L3.PY/L3.KY/H2.YQ (antibody, V domains shown)
# VH: B1 VH with G53Y, S54Q, T97A, A104S, Q105G
# VL: B1 VL with A31S, H32S, Q90K, H91Y
# notes: IgG
# B5: L3.PY/L1.PH/H3.AQ (antibody, V domains shown)
# VH: B1 VH with T97A
# VL: B1 VL with A31P
# notes: IgG
# B6: L3.PY/L1.FF/H2.QL (antibody, V domains shown)
# VH: B1 VH with S63Q, V64L, T97A, A104S, Q105G
# VL: B1 VL with A31S, H32F, Y33F
# notes: IgG
# B7: L3.PY/L1.FF/H3.AE (antibody, V domains shown)
# VH: B1 VH with T97A, Q105E
# VL: B1 VL with A31S, H32F, Y33F
# notes: IgG
# B8: L3.PY/L1.FF/H3.TAQ (antibody, V domains shown)
# VH: B1 VH
# VL: B1 VL with A31S, H32F, Y33F
# notes: IgG
# B9: L3.PY/L3.KF/H3.AQ (antibody, V domains shown)
# VH: B1 VH with T97A
# VL: B1 VL with A31S, H32S, Q90K, H91F
# notes: IgG
# B10: L3.PY/L3.KY/H2.QL (antibody, V domains shown)
# VH: B1 VH with S63Q, V64L, T97A, A104S, Q105G
# VL: B1 VL with A31S, H32S, Q90K, H91Y
# notes: IgG
# B11: L3.PY/L3.KF/H3.YA (antibody, V domains shown)
# VH: B1 VH with T97A, A103Y, Q105G
# VL: B1 VL with A31S, H32S, Q90K, H91F
# notes: IgG
# B12: L3.PY/L3.KY/H3.TAQ (antibody, V domains shown)
# VH: B1 VH
# VL: B1 VL with A31S, H32S, Q90K, H91Y
# notes: IgG
# B13: L3.PY/L3.KF/H3.TAQ (antibody, V domains shown)
# VH: B1 VH
# VL: B1 VL with A31S, H32S, Q90K, H91F
# notes: IgG
# B14: L3.PY/L3.KF/H3.AE (antibody, V domains shown)
# VH: B1 VH with T97A, Q105E
# VL: B1 VL with A31S, H32S, Q90K, H91F
# notes: IgG
# B15: L3.PY/L3.KF/H2.YQ (antibody, V domains shown)
# VH: B1 VH with G53Y, S54Q, T97A, A104S, Q105G
# VL: B1 VL with A31S, H32S, Q90K, H91F
# notes: IgG
# B16: L3.PY/L3.KY/H2.LT (antibody, V domains shown)
# VH: B1 VH with G53L, S54T, T97A, A104S, Q105G
# VL: B1 VL with A31S, H32S, Q90K, H91Y
# notes: IgG
# B17: L3.PY/L1.PH/H3.TAQ (antibody, V domains shown)
# VH: B1 VH
# VL: B1 VL with A31P
# notes: IgG
# B18: L3.PY/L3.KY/H2.QR (antibody, V domains shown)
# VH: B1 VH with S63Q, V64R, T97A, A104S, Q105G
# VL: B1 VL with A31S, H32S, Q90K, H91Y
# notes: IgG
# B19: L3.PY/L3.KF/H2.DY (antibody, V domains shown)
# VH: B1 VH with S52D, G53Y, T97A, A104S, Q105G
# VL: B1 VL with A31S, H32S, Q90K, H91F
# notes: IgG
# B20: L3.PY/L1.FF/H2.HA (antibody, V domains shown)
# VH: B1 VH with G53H, S54A, T97A, A104S, Q105G
# VL: B1 VL with A31S, H32F, Y33F
# notes: IgG
# B21: L3.PY/L1.FF/H2.LT (antibody, V domains shown)
# VH: B1 VH with G53L, S54T, T97A, A104S, Q105G
# VL: B1 VL with A31S, H32F, Y33F
# notes: IgG
# B22: L3.PY/L1.FF/H2.DY (antibody, V domains shown)
# VH: B1 VH with S52D, G53Y, T97A, A104S, Q105G
# VL: B1 VL with A31S, H32F, Y33F
# notes: IgG
# B23: L3.PY/L3.KF/H2.LT (antibody, V domains shown)
# VH: B1 VH with G53L, S54T, T97A, A104S, Q105G
# VL: B1 VL with A31S, H32S, Q90K, H91F
# notes: IgG
# B24: L3.PY/L3.KY/H2.HA (antibody, V domains shown)
# VH: B1 VH with G53H, S54A, T97A, A104S, Q105G
# VL: B1 VL with A31S, H32S, Q90K, H91Y
# notes: IgG
# B25: L3.PY/L1.FF/H2.QR (antibody, V domains shown)
# VH: B1 VH with S63Q, V64R, T97A, A104S, Q105G
# VL: B1 VL with A31S, H32F, Y33F
# notes: IgG
# B26: L3.PY/L1.FF/H2.YQ (antibody, V domains shown)
# VH: B1 VH with G53Y, S54Q, T97A, A104S, Q105G
# VL: B1 VL with A31S, H32F, Y33F
# notes: IgG
# B27: L3.PY/L3.KY/H2.DY (antibody, V domains shown)
# VH: B1 VH with S52D, G53Y, T97A, A104S, Q105G
# VL: B1 VL with A31S, H32S, Q90K, H91Y
# notes: IgG
# B28: L3.PY/L1.FF/H3.AQ (antibody, V domains shown)
# VH: B1 VH with T97A
# VL: B1 VL with A31S, H32F, Y33F
# notes: IgG
# B29: L3.PY/L1.PH/H3.AE (antibody, V domains shown)
# VH: B1 VH with T97A, Q105E
# VL: B1 VL with A31P
# notes: IgG
# B30: L3.PY/L3.KF/H2.QL (antibody, V domains shown)
# VH: B1 VH with S63Q, V64L, T97A, A104S, Q105G
# VL: B1 VL with A31S, H32S, Q90K, H91F
# notes: IgG
# B31: L3.PY/L1.PH/H2.HA (antibody, V domains shown)
# VH: B1 VH with G53H, S54A, T97A, A104S, Q105G
# VL: B1 VL with A31P
# notes: IgG
# Target: T1, Human BCMA (human, UniProt Q02223 1-54, limits assumed)
# T1 construct: Soluble analyte in SPR; construct not described; also called huBCMA; B-cell maturation antigen
# T1 sequence (looked up): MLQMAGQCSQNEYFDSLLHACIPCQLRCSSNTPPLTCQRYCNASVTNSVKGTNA
# Assay: SPR, IgG immobilised, 37 C
# Experimental: All experiments were performed on a Bio-Rad Proteon XPR36 surface Plasmon resonance biosensor (Bio-Rad, Hercules, Calif.). […] The analysis temperature for the immobilization was 25° C. and the running buffer was HBS-T+(10 mM HEPES, 150 mM NaCl, 0.05% Tween-20, pH 7.4). Channels were activated in the analyte (horizontal) direction by injecting a mixture of 1 mM ECD and 0.25 mM NHS for 3 minutes at a flow rate of 30 μL/min. IgGs were immobilized on the activated spots by injecting them in the ligand (vertical) direction at 20 μg/mL in 10 mM Acetate pH 4.5 buffer for 1.5 minutes at […]. The activated surfaces were blocked by injecting 1M ethanolamine, pH 8.5 in the analyte direction for 3 minutes at 30 μL/min.
# The analysis temperature for the BCMA binding analysis was 37° C. or 25° C. in a running buffer of HBS-T+, supplemented with 1 mg/mL BSA. A kinetic titration method was employed for the interaction analysis as described in Abdiche, et al. Human BCMA (huBCMA) or cynomolgus monkey BCMA (cyBCMA) analyte was injected in the analyte direction using a series of injections from low to high concentration. The concentrations used were 0.08 nM, 0.4 nM, 2 nM, 10 nM and 50 nM (a 5-membered series, with a 5-fold dilution factor and top concentration of 50 nM). The association time for a given analyte dilution was two minutes. Immediately after the 50 nM BCMA injection, dissociation was monitored for 2 hours.
# The sensorgrams were double-referenced and fit to a 1:1 Langmuir with mass transport kinetic titration model in BIAevaluation Software version 4.1.1 (GE Lifesciences, Piscataway, N.J.).
Binder,Kd,T ½,koff,kon
B1,0.37 nM,9.68 min,0.00119 s⁻¹,3.27e+06 M⁻¹ s⁻¹
B2,0.51 nM,6.41 min,0.0018 s⁻¹,3.5e+06 M⁻¹ s⁻¹
B3,0.64 nM,4.89 min,0.00236 s⁻¹,3.69e+06 M⁻¹ s⁻¹
B4,0.77 nM,7.02 min,0.00165 s⁻¹,2.14e+06 M⁻¹ s⁻¹
B5,0.52 nM,7.27 min,0.00159 s⁻¹,3.08e+06 M⁻¹ s⁻¹
B6,0.4 nM,8.28 min,0.0014 s⁻¹,3.48e+06 M⁻¹ s⁻¹
B7,0.69 nM,4.39 min,0.00263 s⁻¹,3.82e+06 M⁻¹ s⁻¹
B8,0.54 nM,6.12 min,0.00189 s⁻¹,3.52e+06 M⁻¹ s⁻¹
B9,0.65 nM,5.09 min,0.00227 s⁻¹,3.48e+06 M⁻¹ s⁻¹
B10,0.57 nM,5.56 min,0.00208 s⁻¹,3.65e+06 M⁻¹ s⁻¹
B11,0.47 nM,7.85 min,0.00147 s⁻¹,3.12e+06 M⁻¹ s⁻¹
B12,0.23 nM,17.8 min,0.000649 s⁻¹,2.79e+06 M⁻¹ s⁻¹
B13,0.58 nM,7.12 min,0.00162 s⁻¹,2.82e+06 M⁻¹ s⁻¹
B14,0.51 nM,7.44 min,0.00155 s⁻¹,3.07e+06 M⁻¹ s⁻¹
B15,1.14 nM,5.18 min,0.00223 s⁻¹,1.96e+06 M⁻¹ s⁻¹
B16,0.31 nM,12.8 min,0.000906 s⁻¹,2.92e+06 M⁻¹ s⁻¹

Binder,Kd,T ½,koff,kon
B17,0.59 nM,5.43 min,0.00213 s⁻¹,3.58e+06 M⁻¹ s⁻¹
B18,0.34 nM,11.7 min,0.00099 s⁻¹,2.95e+06 M⁻¹ s⁻¹
B19,0.67 nM,6.35 min,0.00182 s⁻¹,2.74e+06 M⁻¹ s⁻¹
B20,0.63 nM,5.29 min,0.00219 s⁻¹,3.49e+06 M⁻¹ s⁻¹
B21,0.51 nM,6.92 min,0.00167 s⁻¹,3.3e+06 M⁻¹ s⁻¹
B22,0.65 nM,4.27 min,0.00271 s⁻¹,4.14e+06 M⁻¹ s⁻¹
B23,0.69 nM,6.05 min,0.00191 s⁻¹,2.75e+06 M⁻¹ s⁻¹
B24,0.49 nM,7.1 min,0.00163 s⁻¹,3.29e+06 M⁻¹ s⁻¹
B25,0.51 nM,6.54 min,0.00177 s⁻¹,3.47e+06 M⁻¹ s⁻¹
B26,0.46 nM,7.61 min,0.00152 s⁻¹,3.32e+06 M⁻¹ s⁻¹
B27,0.2 nM,18 min,0.000642 s⁻¹,3.19e+06 M⁻¹ s⁻¹
B28,0.46 nM,7.51 min,0.00154 s⁻¹,3.32e+06 M⁻¹ s⁻¹
B29,0.36 nM,8.61 min,0.00134 s⁻¹,3.68e+06 M⁻¹ s⁻¹
B30,0.6 nM,9.26 min,0.00125 s⁻¹,2.07e+06 M⁻¹ s⁻¹
B31,0.49 nM,9.99 min,0.00116 s⁻¹,2.37e+06 M⁻¹ s⁻¹
